Laboratory results published in PMC2756588.

target: T1, Myo5, Q04439; assay: SPOT array; conditions: median of control spots 471
T1 sequence (Q04439 1072-1160, looked up): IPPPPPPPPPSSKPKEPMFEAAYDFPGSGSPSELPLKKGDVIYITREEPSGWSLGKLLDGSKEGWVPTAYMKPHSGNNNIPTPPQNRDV

Row | Binder | SPOT intensity
1 | LKHGWKPLRPIKLIS | 0
2 | NMLKKKPLKKPLKRF | 1
3 | FPPKRKPLLRPQRSD | 0

target: GST; assay: SPOT array; conditions: median of control spots 978

Row | Binder | SPOT intensity
4 | LKHGWKPLRPIKLIS | 0
5 | NMLKKKPLKKPLKRF | 6
6 | FPPKRKPLLRPQRSD | 2

target: T2, Boi1, P38041; assay: SPOT array; conditions: median of control spots 1162
T2 sequence (P38041 1-86, looked up): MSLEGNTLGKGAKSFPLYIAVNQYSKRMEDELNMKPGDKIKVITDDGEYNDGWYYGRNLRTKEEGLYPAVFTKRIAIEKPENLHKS

Row | Binder | SPOT intensity
7 | LKHGWKPLRPIKLIS | 0
8 | NMLKKKPLKKPLKRF | 11
9 | FPPKRKPLLRPQRSD | 6

target: T3, Abp1, P15891; assay: SPOT array; conditions: median of control spots 935
T3 sequence (P15891 535-592, looked up): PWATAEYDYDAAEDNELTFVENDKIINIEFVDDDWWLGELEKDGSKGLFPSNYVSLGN

Row | Binder | SPOT intensity
10 | LKHGWKPLRPIKLIS | 75
11 | NMLKKKPLKKPLKRF | 303
12 | FPPKRKPLLRPQRSD | 232

target: T4, Lsb3, P43603; assay: SPOT array; conditions: median of control spots 406
T4 sequence (P43603 385-451, looked up): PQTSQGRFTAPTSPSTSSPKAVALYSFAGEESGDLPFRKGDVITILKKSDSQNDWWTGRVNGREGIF

Row | Binder | SPOT intensity
13 | LKHGWKPLRPIKLIS | 0
14 | NMLKKKPLKKPLKRF | 2
15 | FPPKRKPLLRPQRSD | 48

target: T5, Boi2, P39969; assay: SPOT array; conditions: median of control spots 1161
T5 sequence (P39969 32-116, looked up): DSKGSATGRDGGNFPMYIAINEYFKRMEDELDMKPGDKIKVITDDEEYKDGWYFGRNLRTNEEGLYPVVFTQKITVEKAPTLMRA

Row | Binder | SPOT intensity
16 | LKHGWKPLRPIKLIS | 0
17 | NMLKKKPLKKPLKRF | 1
18 | FPPKRKPLLRPQRSD | 1

target: T6, Bzz1-2, P38822; assay: SPOT array; conditions: median of control spots 4538
T6 sequence (P38822 568-633, looked up): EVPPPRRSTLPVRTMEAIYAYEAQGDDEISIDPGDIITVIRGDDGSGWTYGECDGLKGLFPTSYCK

Row | Binder | SPOT intensity
19 | LKHGWKPLRPIKLIS | 1
20 | NMLKKKPLKKPLKRF | 46
21 | FPPKRKPLLRPQRSD | 28

target: T7, Sla1-3, P32790; assay: SPOT array; conditions: median of control spots 5475
T7 sequence (P32790 344-424, looked up): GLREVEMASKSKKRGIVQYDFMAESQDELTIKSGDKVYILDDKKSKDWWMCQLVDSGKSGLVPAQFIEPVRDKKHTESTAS

Row | Binder | SPOT intensity
22 | LKHGWKPLRPIKLIS | 16
23 | NMLKKKPLKKPLKRF | 36
24 | FPPKRKPLLRPQRSD | 25

target: Rvs167, P39743; assay: SPOT array; conditions: median of control spots 2707
Sequence (P39743 419-482): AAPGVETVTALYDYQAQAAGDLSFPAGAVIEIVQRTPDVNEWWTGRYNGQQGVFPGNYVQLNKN

Row | Binder | SPOT intensity
25 | LKHGWKPLRPIKLIS | 0
26 | NMLKKKPLKKPLKRF | 0
27 | FPPKRKPLLRPQRSD | 25

target: Sho1, P40073; assay: SPOT array; conditions: median of control spots 1148
Sequence (P40073 287-367): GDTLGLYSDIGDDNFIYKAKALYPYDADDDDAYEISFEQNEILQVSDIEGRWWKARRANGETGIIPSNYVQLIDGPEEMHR

Row | Binder | SPOT intensity
28 | LKHGWKPLRPIKLIS | 55
29 | NMLKKKPLKKPLKRF | 228
30 | FPPKRKPLLRPQRSD | 154

target: T8, Lsb1, P53281; assay: SPOT array; conditions: median of control spots 388
T8 sequence (P53281 45-122, looked up): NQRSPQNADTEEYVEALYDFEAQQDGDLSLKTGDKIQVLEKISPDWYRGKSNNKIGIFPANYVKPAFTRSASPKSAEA

Row | Binder | SPOT intensity
31 | LKHGWKPLRPIKLIS | 0
32 | NMLKKKPLKKPLKRF | 0
33 | FPPKRKPLLRPQRSD | 69

target: T9, Nbp2, Q12163; assay: SPOT array; conditions: median of control spots 357
T9 sequence (Q12163 103-180, looked up): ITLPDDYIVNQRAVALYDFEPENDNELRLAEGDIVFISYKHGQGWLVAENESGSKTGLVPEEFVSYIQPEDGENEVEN

Row | Binder | SPOT intensity
34 | LKHGWKPLRPIKLIS | 2
35 | NMLKKKPLKKPLKRF | 66
36 | FPPKRKPLLRPQRSD | 9

target: T10, Bud14, P27637; assay: SPOT array; conditions: median of control spots 956
T10 sequence (P27637 247-328, looked up): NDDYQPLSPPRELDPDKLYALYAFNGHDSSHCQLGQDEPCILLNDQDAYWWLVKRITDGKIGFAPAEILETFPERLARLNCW

Row | Binder | SPOT intensity
37 | LKHGWKPLRPIKLIS | 8
38 | NMLKKKPLKKPLKRF | 33
39 | FPPKRKPLLRPQRSD | 19

target: T11, Hse1, P38753; assay: SPOT array; conditions: median of control spots 1727
T11 sequence (P38753 208-285, looked up): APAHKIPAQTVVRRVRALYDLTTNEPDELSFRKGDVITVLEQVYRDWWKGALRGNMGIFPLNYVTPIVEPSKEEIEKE

Row | Binder | SPOT intensity
40 | LKHGWKPLRPIKLIS | 147
41 | NMLKKKPLKKPLKRF | 187
42 | FPPKRKPLLRPQRSD | 51

target: Myo3, P36006; assay: SPOT array; conditions: median of control spots 468

Row | Binder | SPOT intensity
43 | LKHGWKPLRPIKLIS | 0
44 | NMLKKKPLKKPLKRF | 24
45 | FPPKRKPLLRPQRSD | 30

target: Bem1-2, P29366; assay: SPOT array; conditions: median of control spots 4347
Sequence (P29366 139-227): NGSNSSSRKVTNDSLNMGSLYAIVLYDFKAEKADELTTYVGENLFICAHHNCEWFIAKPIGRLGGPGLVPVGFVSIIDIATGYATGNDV

Row | Binder | SPOT intensity
46 | LKHGWKPLRPIKLIS | 7
47 | NMLKKKPLKKPLKRF | 30
48 | FPPKRKPLLRPQRSD | 19

target: Bem1-1, P29366; assay: SPOT array; conditions: median of control spots 4282
Sequence (P29366 55-141): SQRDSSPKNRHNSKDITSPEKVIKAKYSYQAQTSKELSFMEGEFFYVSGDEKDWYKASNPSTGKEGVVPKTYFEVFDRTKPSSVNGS

Row | Binder | SPOT intensity
49 | LKHGWKPLRPIKLIS | 0
50 | NMLKKKPLKKPLKRF | 0
51 | FPPKRKPLLRPQRSD | 1

target: T12, Bbc1, P47068; assay: SPOT array; conditions: median of control spots 796
T12 sequence (P47068 1-78, looked up): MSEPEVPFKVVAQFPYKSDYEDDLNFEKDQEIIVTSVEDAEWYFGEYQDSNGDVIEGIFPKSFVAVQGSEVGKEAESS

Row | Binder | SPOT intensity
52 | LKHGWKPLRPIKLIS | 14
53 | NMLKKKPLKKPLKRF | 160
54 | FPPKRKPLLRPQRSD | 266

target: T13, Bzz1-1, P38822; assay: SPOT array; conditions: median of control spots 4446
T13 sequence (P38822 478-572, looked up): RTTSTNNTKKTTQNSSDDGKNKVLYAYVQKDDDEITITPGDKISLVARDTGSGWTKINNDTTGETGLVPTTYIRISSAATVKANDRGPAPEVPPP

Row | Binder | SPOT intensity
55 | LKHGWKPLRPIKLIS | 0
56 | NMLKKKPLKKPLKRF | 0
57 | FPPKRKPLLRPQRSD | 0

target: T14, Lsb4, P32793; assay: SPOT array; conditions: median of control spots 397
T14 sequence (P32793 402-468, looked up): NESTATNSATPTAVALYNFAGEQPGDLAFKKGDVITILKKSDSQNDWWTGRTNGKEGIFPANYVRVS

Row | Binder | SPOT intensity
58 | LKHGWKPLRPIKLIS | 4
59 | NMLKKKPLKKPLKRF | 1
60 | FPPKRKPLLRPQRSD | 81

target: T15, Cdc25, P04821; assay: SPOT array; conditions: median of control spots 969
T15 sequence (P04821 50-136, looked up): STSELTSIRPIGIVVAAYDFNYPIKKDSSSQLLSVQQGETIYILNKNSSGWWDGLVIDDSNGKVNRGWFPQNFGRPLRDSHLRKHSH

Row | Binder | SPOT intensity
61 | LKHGWKPLRPIKLIS | 14
62 | NMLKKKPLKKPLKRF | 68
63 | FPPKRKPLLRPQRSD | 27

target: T16, Pin3, Q06449; assay: SPOT array; conditions: median of control spots 2171
T16 sequence (Q06449 53-122, looked up): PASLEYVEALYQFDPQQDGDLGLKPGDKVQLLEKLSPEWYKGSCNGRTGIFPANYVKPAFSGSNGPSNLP

Row | Binder | SPOT intensity
64 | LKHGWKPLRPIKLIS | 3
65 | NMLKKKPLKKPLKRF | 34
66 | FPPKRKPLLRPQRSD | 19

target: T17, Fus1, P11710; assay: SPOT array; conditions: median of control spots 1200
T17 sequence (P11710 432-512, looked up): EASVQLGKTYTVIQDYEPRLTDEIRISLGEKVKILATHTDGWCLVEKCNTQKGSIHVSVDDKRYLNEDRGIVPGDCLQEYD

Row | Binder | SPOT intensity
67 | LKHGWKPLRPIKLIS | 4
68 | NMLKKKPLKKPLKRF | 36
69 | FPPKRKPLLRPQRSD | 6

target: T18, Sla1-2, P32790; assay: SPOT array; conditions: median of control spots 712
T18 sequence (P32790 60-140, looked up): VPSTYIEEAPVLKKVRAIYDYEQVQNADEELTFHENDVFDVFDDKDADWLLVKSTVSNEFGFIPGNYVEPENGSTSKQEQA

Row | Binder | SPOT intensity
70 | LKHGWKPLRPIKLIS | 0
71 | NMLKKKPLKKPLKRF | 2
72 | FPPKRKPLLRPQRSD | 1

target: T19, Pex13, P80667; assay: SPOT array; conditions: median of control spots 1341
T19 sequence (P80667 295-386, looked up): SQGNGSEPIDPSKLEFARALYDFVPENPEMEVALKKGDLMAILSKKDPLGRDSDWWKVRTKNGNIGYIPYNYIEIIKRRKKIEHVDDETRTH

Row | Binder | SPOT intensity
73 | LKHGWKPLRPIKLIS | 17
74 | NMLKKKPLKKPLKRF | 18
75 | FPPKRKPLLRPQRSD | 16

target: T20, Cyk3, Q07533; assay: SPOT array; conditions: median of control spots 1451
T20 sequence (Q07533 1-83, looked up): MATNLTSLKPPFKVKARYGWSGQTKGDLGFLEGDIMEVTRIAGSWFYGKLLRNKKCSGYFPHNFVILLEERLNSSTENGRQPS

Row | Binder | SPOT intensity
76 | LKHGWKPLRPIKLIS | 0
77 | NMLKKKPLKKPLKRF | 2
78 | FPPKRKPLLRPQRSD | 3

target: T21, Hof1, Q05080; assay: SPOT array; conditions: median of control spots 4086
T21 sequence (Q05080 590-669, looked up): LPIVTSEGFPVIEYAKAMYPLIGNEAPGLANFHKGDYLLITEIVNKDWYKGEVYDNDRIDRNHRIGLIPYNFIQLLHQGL

Row | Binder | SPOT intensity
79 | LKHGWKPLRPIKLIS | 0
80 | NMLKKKPLKKPLKRF | 14
81 | FPPKRKPLLRPQRSD | 4
